Data on one protein can be found in US20050026256.

In this data set the target is T1, synthetic peptide substrate SEVNLDAEFR containing the APP Swedish mutation.
T1 chain: SEVNLDAEFR

B1: Hu-Asp2 (human aspartyl protease 2), full-length, expressed from pcDNA3.1(+)Hygro/Hu-Asp2 (protein)
chain: TQHGIRLPLRSGLGGAPLGLRLPRETDEEPEEPGRRGSFVEMVDNLRGKSGQGYYVEMTVGSPPQTLNILVDTGSSNFAVGAAPHPFLHRYYQRQLSSTYRDLRKGVYVPYTQGKWEGELGTDLVSIPHGPNVTVRANIAAITESDKFFINGSNWEGILGLAYAEIARPDDSLEPFFDSLVKQTHVPNLFSLQLCGAGFPLNQSEVLASVGGSMIIGGIDHSLYTGSLWYTPIRREWYYEVIIVRVEINGQDLKMDCKEYNYDKSIVDSGTTNLRLPKKVFEAAVKSIKAASSTEKFPDGFWLGEQLVCWQAGTTPWNIFPVISLYLMGEVTNQSFRITILPQQYLRPVEDVATSQDDCYKFAISQSSTGTVMGAVIMEGFYVVFDRARKRIGFAVSACHVHDEFRTAAVEGPFVTLDMEDCGYNIPQTDESTLMTIAYVMAAICALFMLPLCLMVCQWRCLRCLRQQHDDFADDISLLK
Turning to B1, the “hydrolysis of the synthetic peptide substrate, RP-HPLC with UV detection; products identified by Edman sequencing and MALDI-TOF” value is “the two product peaks which eluted before the intact peptide substrate, were confirmed to have the sequence DAEFR and SEVNL”; the “β-secretase activity of chromatography fractions (peptide substrate assay)” value was “Fractions containing both Hu-Asp2 immunoreactivity and β-secretase activity were combined”.
